According to paper PMC5431086, “The Rational Design of Therapeutic Peptides for Aminopeptidase N using a Substrate-Based Approach” (Scientific Reports, 2017):
Starred links: 1 amine or outer side, 2 acyl side, 3 side chain; linkers in the order of their positions; H or OH if unused. Positions of bridges follow the written chain, without caps; N, C: chain ends. No end group written: not given here. *: point of attachment. Suc = O=C(CCC(=O)[*:2])[*:1]; Cbz = O=C(OCc1ccccc1)*; For = O=C*

What follows are binders tested against aminopeptidase N on the surface of PC3 cells (human (endogenous in PC3)) (UniProt P15144) (assay: not given).
Sequence of aminopeptidase N on the surface of PC3 cells (human (endogenous in PC3)) (P15144 whole entry): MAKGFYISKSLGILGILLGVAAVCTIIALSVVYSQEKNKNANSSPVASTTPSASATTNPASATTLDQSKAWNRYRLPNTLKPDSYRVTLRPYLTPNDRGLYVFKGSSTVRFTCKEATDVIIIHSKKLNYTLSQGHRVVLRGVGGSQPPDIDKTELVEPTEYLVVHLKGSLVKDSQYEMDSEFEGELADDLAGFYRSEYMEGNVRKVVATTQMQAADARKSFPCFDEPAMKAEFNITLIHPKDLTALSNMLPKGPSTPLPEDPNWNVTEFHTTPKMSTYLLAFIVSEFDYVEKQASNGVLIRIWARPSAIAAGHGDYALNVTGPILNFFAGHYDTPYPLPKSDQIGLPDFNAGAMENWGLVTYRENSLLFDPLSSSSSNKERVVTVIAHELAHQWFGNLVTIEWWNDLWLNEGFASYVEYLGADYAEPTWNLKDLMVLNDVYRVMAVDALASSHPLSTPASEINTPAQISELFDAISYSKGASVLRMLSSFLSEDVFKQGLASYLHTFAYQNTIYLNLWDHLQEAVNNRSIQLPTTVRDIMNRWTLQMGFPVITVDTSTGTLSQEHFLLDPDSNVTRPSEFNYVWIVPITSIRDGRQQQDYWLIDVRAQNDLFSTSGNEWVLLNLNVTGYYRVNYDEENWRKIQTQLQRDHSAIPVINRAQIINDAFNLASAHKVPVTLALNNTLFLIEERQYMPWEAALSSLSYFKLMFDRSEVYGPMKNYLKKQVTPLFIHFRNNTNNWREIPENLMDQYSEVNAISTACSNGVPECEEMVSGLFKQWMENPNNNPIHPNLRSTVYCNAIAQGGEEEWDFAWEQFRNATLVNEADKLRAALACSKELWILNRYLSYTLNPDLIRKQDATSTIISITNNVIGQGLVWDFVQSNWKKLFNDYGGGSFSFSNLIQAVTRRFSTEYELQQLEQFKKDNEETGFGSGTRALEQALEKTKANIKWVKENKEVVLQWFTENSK
CLHSPWC (disulfide 1-7) [cyc-LHSPW] showed a tumor volume of PC3 xenografts at day 35, mice treated with 40 mg/kg cyc-LHSPW t.i.w. x4 (saline and cyc-NGR arms >1000 mm^3) of 309 mm^3.

These binders were tested against chymotrypsin (assay: enzyme inhibition assay (panel of proteases); cyc-LHSPW tested against a panel of cancer-associated proteases (Fig. 5A); conditions not given).
Binder CLHSPWC (disulfide 1-7) [cyc-LHSPW] has a Ki of over 100 µM.

The binders below were run against recombinant human aminopeptidase N (hAPN) (human) (UniProt P15144) (assay: enzyme inhibition assay (competition with the fluorogenic substrate H-Ala-AMC); 0.1 μM APN, 100 μM H-Ala-AMC, 100 mM Tris pH 7.2, Brij 35 0.0002% w/v, 37 °C, triplicate; inhibition competitive, Ki from the IC50 by the Cheng-Prusoff equation).
With CLHSPWC (disulfide 1-7) [cyc-LHSPW] the Ki was 24.7 µM. Binder ADARK has an IC50 of over 500 µM. DARK showed an IC50 of over 500 µM. INDFL was tested, and the IC50 was over 500 µM. Binder AHLFN has an IC50 of over 500 µM. Work on FSLSK yielded an IC50 of over 500 µM. In the case of SKSGQ, the IC50 is reported as over 500 µM. With AHSTF the IC50 was over 500 µM. For FYLRE, the IC50 was over 500 µM. Work on FDWWG yielded an IC50 of over 500 µM. RDLVD showed an IC50 of over 500 µM. Work on AHSPW yielded an IC50 of 9.4 µM. With EPKVA the IC50 was over 500 µM. In the case of CLHSPC (disulfide 1-6) [cyc-LHSP], the Ki is reported as 121 µM. In the case of CLHSC (disulfide 1-5) [cyc-LHS], the Ki is reported as over 500 µM. CPHSPWC (disulfide 1-7) [cyc-PHSPW] showed a Ki of over 500 µM. CAHSPWC (disulfide 1-7) [cyc-AHSPW] was tested, and the Ki was over 500 µM. With For-HSPW [For-HSPW] the Ki was over 500 µM. For Suc-HSPW [Suc-HSPW], the Ki was over 500 µM. With Cbz-HSPW [Cbz-HSPW] the Ki was over 500 µM. Binder LHSPW has an IC50 of 10.6 µM. Binder Ac-HSPW [Ac-HSPW] has a Ki of over 500 µM. For-LHSPW [For-LHSPW] gave a Ki of over 500 µM. With Suc-LHSPW [Suc-LHSPW] the Ki was over 500 µM. In the case of Cbz-LHSPW [Cbz-LHSPW], the Ki is reported as over 500 µM. Ac-LHSPW [Ac-LHSPW] gave a Ki of over 500 µM. With CLDSTFC (disulfide 1-7) [cyc-LDSTF] the Ki was over 500 µM. CADARKC (disulfide 1-7) [cyc-ADARK] was tested, and the Ki was over 500 µM. HSPW gave an IC50 of 43.3 µM. For PHSPW, the IC50 was 82.5 µM. Work on EHSPW yielded an IC50 of 115 µM. LDSTF was tested, and the IC50 was over 500 µM. For DSTF, the IC50 was over 500 µM.
